Laboratory results reported in patent publication US20060153850A1.

How the values were obtained:
[1] = biological target: human M-CSF (macrophage colony stimulating factor) (human) (UniProt P09603); assay: c-fms receptor binding inhibition assay: antibody varied, 125I-M-CSF binding to c-fms-bearing cells
[2] = biological target: human M-CSF (macrophage colony stimulating factor) (human) (UniProt P09603); assay: cell-based or functional assay

IC50 [1]: 0.006 nM
Human Whole Blood Monocyte Activation Assay [IC50, M] [2]: 1.98e-10 M
M-CSF Mouse Monocytic Cell Proliferation Assay [IC50, M] [2]: 7.37e-10 M
B1: monoclonal antibody 9.7.2 (antibody, human IgG4, kappa, V domains shown)
VH: QVQLVESGGGLVKPGGSLRLSCAASGFTFSDYYMSWIRQAPGKGLEWVSYISSSGSTIYYADSVKGRFTISRDNAKNSLYLQMNSLRAEDTAVYYCARRIGGMDVWGQGTTVTVSS
VL: DIQMTQSPSSLSASVGDRVTITCRASQSISGFLIWYQQRPGKAPKLLIYATSSLQSGVPLRFSGSESGTDFTLTISSLQPEDFATYYCQQSYSTPFTFGPGTKVDIKR
